The target in experiment [1] is 人IV型胶原蛋白α3链多肽 (human). Description: indirect ELISA, purified antibody on plates coated with 0.5 μg/ml peptide. A general note: An ELISA detects its analyte on a solid surface through an enzyme-linked reagent.
Experiment [2] has as its target 生物素标记的抗原多肽. Description: BLI (Fortebio Octet), biotinylated peptide on SA biosensor, antibody at 1.56-100 nM.

B1: 4E5E2-1 (antibody, IgG1, V domains shown)
VH: EVQLQQSGAELVRSGASVKLSCTASGFNIKDSNIHWLIQRPEQDLEWIGWIDPDNGDSEYAPKFQGEATMTADTSSNTAYLQLSSLTSEDTAVYFCNAVNWDYFDYWGQGTTLTVSS
VL: DVVVTQTPLSLPVSLGDQASISCRSSQSLVHNNGNTYLHWYLQRPGQSPKLLIYKVSNRFSGVPDRVSGSGSGTDFTLKISRVEAEDLGVYFCSQSTHIPITFGSGTKLEIK
For the molecule B1, in experiment [1], the EC50 was 4.64 ng/mL. In experiment [2], this molecule showed a Kd of 0.399 nM.

As usually defined, the EC50 is the midpoint of the concentration-response curve. The Kd is the constant that tells how readily two partners part at equilibrium. A lower Kd goes with higher affinity.

The values above are taken from patent publication CN116355089A.
